The record followed here is publication PMC6561022, “β-Lactam Antibiotics Enhance the Pathogenicity of Methicillin-Resistant Staphylococcus aureus via SarA-Controlled Lipoprotein-Like Cluster Expression”.

This series concerns the target T1, SarA-his (Staphylococcus aureus N315, UniProt Q7A732 1-124).
T1 sequence: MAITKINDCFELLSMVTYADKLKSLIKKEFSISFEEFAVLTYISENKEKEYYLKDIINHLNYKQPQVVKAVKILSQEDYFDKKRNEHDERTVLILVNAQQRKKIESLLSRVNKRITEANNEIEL
The series is described as follows: EMSA; SarA-his 0-240 pM (so in the source), 10 pmol DNA; 10 mM HEPES pH 7.6, 1 mM EDTA, 2 mM DTT, 50 mM KCl, 0.05% Triton X-100, 5% glycerol; 20 min room temperature; […]. The settings on record: protein: recombinant; tags: N-terminal His6 (pET28a); chain copies: 2; label: none (GelRed stain); blunt.

B1: lpl-PM (GC-rich SarA box mutant) (dsDNA)
DNA 1: CCACGAGGGGGGGGGCGGGGGGGTTCCTCTAGTATTATTAATATTGGAATTTGAAC
DNA 2: GTTCAAATTCCAATATTAATAATACTAGAGGAACCCCCCCGCCCCCCCCCTCGTGG
As to B1, the binding result is “no binding”.

B2: lpl-P (lpl cluster promoter, SarA box) (dsDNA)
DNA 1: CCACGAGGATTTAATCATAAAATTTCCTCTAGTATTATTAATATTGGAATTTGAAC
DNA 2: GTTCAAATTCCAATATTAATAATACTAGAGGAAATTTTATGATTAAATCCTCGTGG
For the molecule B2, the binding result is given as “binds”.
